T1: human CAPRIN-1 protein having the amino acid sequence of SEQ ID NO: 2 (human, UniProt Q14444 1-709, limits assumed)
T1 construct: also called CAPRIN-1 proteins
T1 sequence: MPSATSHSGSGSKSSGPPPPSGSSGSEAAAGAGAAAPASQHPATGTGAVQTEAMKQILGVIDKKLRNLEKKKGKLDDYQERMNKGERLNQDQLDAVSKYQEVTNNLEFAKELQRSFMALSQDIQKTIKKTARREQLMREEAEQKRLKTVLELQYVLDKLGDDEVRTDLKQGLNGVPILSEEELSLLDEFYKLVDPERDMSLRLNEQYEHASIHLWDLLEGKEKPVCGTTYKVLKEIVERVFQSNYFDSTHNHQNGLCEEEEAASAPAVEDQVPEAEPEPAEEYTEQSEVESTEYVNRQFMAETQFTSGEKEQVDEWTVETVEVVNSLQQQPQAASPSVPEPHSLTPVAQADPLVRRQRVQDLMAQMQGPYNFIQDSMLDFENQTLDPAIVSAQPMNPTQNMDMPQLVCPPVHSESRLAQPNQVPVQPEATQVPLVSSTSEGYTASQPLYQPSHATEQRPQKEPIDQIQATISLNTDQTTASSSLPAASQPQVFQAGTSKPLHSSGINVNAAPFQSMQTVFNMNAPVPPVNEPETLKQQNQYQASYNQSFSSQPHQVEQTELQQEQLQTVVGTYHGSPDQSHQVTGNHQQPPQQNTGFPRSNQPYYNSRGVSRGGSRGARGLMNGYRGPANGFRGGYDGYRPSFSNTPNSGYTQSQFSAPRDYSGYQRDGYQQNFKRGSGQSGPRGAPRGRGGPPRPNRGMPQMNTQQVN

T2: partial CAPRIN-1 polypeptide consisting of the amino acid sequence of SEQ ID NO: 5 (human)
T2 construct: Synthetic peptide immobilized on ELISA plates
T2 peptide: ATQVPLVSSTSEGYTA

T3: CAPRIN-1 protein on the cell membrane surface of human cancer cell lines (human, UniProt Q14444 2-709)
T3 construct: whole, on cells; Endogenous CAPRIN-1 on human cancer cell lines (MDA-MB-231V, QG56, DLD-1, Capan-2 and others); The cells were not transfected; also called CAPRIN-1 on cancer cell surface
T3 sequence (looked up): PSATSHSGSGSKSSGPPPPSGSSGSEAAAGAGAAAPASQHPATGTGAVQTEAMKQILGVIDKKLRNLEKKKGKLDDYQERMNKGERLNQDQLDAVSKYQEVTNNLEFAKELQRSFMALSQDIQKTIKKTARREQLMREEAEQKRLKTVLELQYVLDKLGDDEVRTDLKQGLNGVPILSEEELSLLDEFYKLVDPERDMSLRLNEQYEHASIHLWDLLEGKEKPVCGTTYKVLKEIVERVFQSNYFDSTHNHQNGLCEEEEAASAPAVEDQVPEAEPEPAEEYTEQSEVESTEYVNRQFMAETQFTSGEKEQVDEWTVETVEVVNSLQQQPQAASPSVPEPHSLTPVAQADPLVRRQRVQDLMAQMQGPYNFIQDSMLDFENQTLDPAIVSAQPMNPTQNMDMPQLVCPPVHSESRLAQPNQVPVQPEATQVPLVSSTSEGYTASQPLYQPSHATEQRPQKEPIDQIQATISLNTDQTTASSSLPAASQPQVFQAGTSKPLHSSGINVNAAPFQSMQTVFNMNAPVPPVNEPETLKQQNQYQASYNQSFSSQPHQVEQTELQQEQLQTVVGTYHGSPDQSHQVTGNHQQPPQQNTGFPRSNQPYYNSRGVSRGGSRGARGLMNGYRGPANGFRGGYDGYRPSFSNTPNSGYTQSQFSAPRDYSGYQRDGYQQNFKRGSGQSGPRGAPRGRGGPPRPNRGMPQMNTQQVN


What was measured:
[1] = biological target: T1, human CAPRIN-1 protein having the amino …; test: ELISA as in Example 9(3)
[2] = biological target: T2, partial CAPRIN-1 polypeptide consisting …; test: peptide ELISA as in Example 9(3)
[3] = biological target: T3, CAPRIN-1 protein on the cell membrane …; test: flow cytometry on human cancer cell lines as in Example 9(3)
[4] = biological target: T2, partial CAPRIN-1 polypeptide consisting …; test: ELISA on immobilized peptides, antibody at 0.1 µg/mL
Protocol: Each peptide was dissolved at a concentration of 30 μg/ml in a 0.1 M sodium carbonate buffer solution (pH 9.6). […] The solution in each well was discarded, and 10 mM ethanolamine/0.1 M sodium carbonate buffer solution (PH 9.6) was added thereto at a concentration of 200 μL/well and left standing at room temperature for 1 hour. Then, the solution in each well was discarded, and each well was washed twice with PBS containing 0.5% Tween 20 (PBST) to prepare a peptide-immobilized plate. For verification, CAPRIN-1 proteins were immobilized on wells of this plate to prepare another plate according to the method described above. […] After shaking at room temperature for 1 hour, the solution in each well was discarded, and each well was washed three times with PBST. Next, a secondary antibody solution containing HRP-labeled anti-rabbit IgG antibodies diluted 3000- to 4000-fold with PBST was added thereto at a concentration of 50 μL/well. Then, the solution in each well was discarded, and each well was washed six times with PBST. A TMB substrate solution (manufactured by Thermo Fisher Scientific Inc.) was added thereto at a concentration of 100 μL/well and left standing for 15 to 30 minutes to cause color reaction. […] The absorbance was measured at 450 nm and 595 nm using an absorption spectrometer.

[5] = biological target: T2, partial CAPRIN-1 polypeptide consisting …; test: ELISA as in Example 9(1), purified antibody

| binding result [1] | binding result [2] | binding result [3] | binding result [4] | binding result [5] | Binder |
| --- | --- | --- | --- | --- | --- |
| binds | binds | binds |  |  | humanized anti-CAPRIN-1 antibody #2 (antibody, V domains shown, Human IgG1 heavy chain constant region and 'human IgG1 light chain constant region'; also called humanized rabbit anti-CAPRIN-1 monoclonal antibody #2; humanized anti-CAPRIN-1 monoclonal antibody #2) VH: EVQLVESGGGLVQPGGSLRLSCAASGFSFSGSYYMSWVRQAPGKGLEWIAYIYIGDGVTAYANWAKGRFTISKDNSKNTLYLQMNSLRAEDTAVYFCARGNKLWGPGTLVTVSS VL: DIQMTQSPSSLSASVGDRVTIKCQASQSISSYLAWYQQKPGKAPKRLIYDASNLDSGVPSRFSGSGSGTDFTFTISSLQPEDIATYYCQCTAVSSATIYGNAFGGGTKVEIK |
| binds | binds | binds |  |  | humanized anti-CAPRIN-1 antibody #1 (antibody, V domains shown, Human IgG1 heavy chain constant region and 'human IgG1 light chain constant region'; also called humanized rabbit anti-CAPRIN-1 monoclonal antibody #1; humanized anti-CAPRIN-1 monoclonal antibody #1) VH: QVQLVESGGGLVKPGGSLRLSCAASGFSFSGSYYMSWVRQAPGKGLEWIAYIYIGDGVTAYANWAKGRFTISRDNAKNSLYLQMNSLRAEDTAVYFCARGNRLWGQGTLVTVSS VL: DIQMTQSPSSLSAAVGDRVTIKCQASQSISSYLAWYQQKPGKPPKRLIYDASNLDSGVPSRFSGSGSGTDFTFTISSLQPEDIATYYCQCTAVSSATIYGNAFGGGTKVEIK |
| binds | binds | binds |  |  | humanized anti-CAPRIN-1 antibody #3 (antibody, V domains shown, Human IgG1 heavy chain constant region and 'human IgG1 light chain constant region'; also called humanized rabbit anti-CAPRIN-1 monoclonal antibody #3; humanized anti-CAPRIN-1 monoclonal antibody #3) VH: EVQLVESGGGLVQPGGSLRLSCAASGFSFSGSYYMSWVRQAPGKGLEWIAYIYIGDGVTAYANWAKGRFTISRDNSKNTLYLQMNSLRAEDTAVYYCARGNKLWGPGTLVTVSS VL: DIQMTQSPSSLSASVGDRVTIKCQASQSISSYLAWYQQKPGKAPKRLIYDASNLDSGVPSRFSGSGSGTDFTFTISSLQPEDIATYYCQCTAVSSATIYGNAFGGGTKVEIK |
|  |  |  | binds |  | rabbit anti-CAPRIN-1 monoclonal antibody #1 (antibody, V domains shown, Rabbit hybridoma monoclonal antibody; also called rabbit anti-CAPRIN-1 antibody #1) VH: QSLEESGGDLVKPGASLTLTCTASGFSFSGSYYMSWVRQAPGKGLEWIAYIYIGDGVTAYANWAKGRFTISKASSTTVTLQMTSLTAADTATYFCARGNKLWGPGTLVTVSS VL: DVVMTQTPASVEAAVGGTVTIKCQASQSISSYLAWYQQKPGQPPKRLIYDASNLDSGVPSRFKGSGSGTDFTITISDLECADAATYYCQCTAVSSATIYGNAFGGGTEVVVK |
|  |  |  |  | binds | human-rabbit chimeric anti-CAPRIN-1 antibody #1 (antibody, human IgG1, V domains shown, also called human-rabbit chimeric anti-CAPRIN-1 monoclonal antibody #1) VH: QSLEESGGDLVKPGASLTLTCTASGFSFSGSYYMSWVRQAPGKGLEWIAYIYIGDGVTAYANWAKGRFTISKASSTTVTLQMTSLTAADTATYFCARGNKLWGPGTLVTVSS VL: DVVMTQTPASVEAAVGGTVTIKCQASQSISSYLAWYQQKPGQPPKRLIYDASNLDSGVPSRFKGSGSGTDFTITISDLECADAATYYCQCTAVSSATIYGNAFGGGTEVVVK |
